Among the data in paper PMC7614388, “Diversification in the inositol tris/tetrakisphosphate kinase (ITPK) family: crystal structure and enzymology of the outlier AtITPK4” (Biochemical Journal, 2023) are Km values, retold here.

Substrate in this series: Nc1ncnc2c1ncn2[C@@H]1O[C@H](COP(=O)(O)OP(=O)(O)OP(=O)(O)O)[C@@H](O)[C@H]1O
Briefly: HPLC kinase assay, Michaelis-Menten fit. The note with it: 1 mM Ins(1,4,6)P3, ATP 0-5 mM, 6 mM MgCl2, 20 mM HEPES pH 7.3, 25 °C, 3 µM enzyme. The format is biochemical, Arabidopsis thaliana.

B1: AtITPK4 (Arabidopsis thaliana) (protein)
chain: MKGVLLDESVLFSPESEDSSPSLRESVPSLLRLLRYSMIRTGISYGLDLPENKVDLLRKTAAEYSINCLPLETSLTSVTFGDTLKAWYSDGSILYVASSRKEEILRELSPSQLVVLLDVEGDSLEDPNIIHIHSLEELPMTICCINKKAMGDGAAIVAYIMKPSRVEDFAKRGALPMYPTSCGLIFLPLMFEFPLASQLKHADIIFHKATDEILSIELNCSDSKSSVAVTFSTGMEKLKKYMEDQNACAIVDPIRNIYPVVDRLKMQHILLGLEGLGAAGRKIRGACFLKIDSYDEPDLAQNLSRAGLSLPCIVKPQVACGVADAHSMAIVFRVEDFKNLNTPVPAIIQEYVDHSSRIFKFYVLGETIFHAVKKSIPSSSSLRKSAEENGLKPILFDSLKSLPVDSANQNPVSEIDLELVTEAATWLRKKLDLTIFGFDVVIQEGTGDHVIVDLNYLPSFKEVPDNIAVPAFWEAIRNRFDQHVQEKH
notes: full-length; pOPINE, non-cleavable C-terminal 6xHis tag kept; Ni-NTA purified; HAD-like domain 1-150, ATP-grasp kinase domain from 151; no evidence of homo-oligomers
Consider B1, for which the Km is listed as 52 ± 7 µM.
